Assay results as given in patent publication US20240091321A1.

Assays:
Insulin Receptor = experiment: SPR; data not shown
CI-MPR receptor [1] = experiment: CIMPR binding assay, PPT1 conditioned media, curves starting at 25 nM, bound PPT1 activity; the table prints no units, units of the axes
CI-MPR receptor [2] = experiment: CIMPR binding assay, PPT1 conditioned media, dilution starting at 50 nM, bound PPT1 activity; the table prints no units, units of the axes

Kd (Insulin Receptor)	Bmax (CI-MPR receptor [1])	Kd (CI-MPR receptor [1])	Bmax (CI-MPR receptor [2])	Kd (CI-MPR receptor [2])	Substance
8 nM	–	–	–	–	Insulin (from UniProt P01308 25-54; P01308 90-110) (ligand)
–	54.5 nmol/mL/h	2.71 nM	54.4 nmol/mL/h	2.7 nM	PPT1 control (enzyme)
